# Test results as given in the supplement of paper PMC10567573.
# B1: FAM164A (parent)
# chain: YDPDYIQCPYCQRRFNENAADRHI
# B2: CHMP4C (parent)
# chain: TNIRLPNVPSSSLPAQPNRKPGMS
# Variants of: B1
# Experiment: protein stability index of a GFP-peptide fusion (GPS, HEK-293T) (PSI 1-6); higher = more stable
# Settings: c terminus: a fixed tail appended
# 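Note: lentivirally expressed fusions sorted by FACS into six bins by GFP to DsRed ratio, PSI derived from sequencing read proportions per bin multiplied by bin number.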
row,Variant,protein stability index
1,A20G,3.85
2,A20H,3.95
3,A20I,4.37
4,A20K,3.76
5,A20L,4.25
6,A20M,4.12
7,A20N,4.49
8,A20P,3.52
9,A20Q,3.82
10,A20R,4.24
11,A20S,4
12,A20T,3.93
13,A20V,4.36
14,A20W,3.52
15,A20Y,3.78
16,D21A,4.33
17,D21C,4.8
18,D21E,4.42
19,D21F,3.72
20,D21G,3.9
21,D21H,3.93
22,D21I,4.63
23,D21K,4.46

row,Variant,protein stability index
1,D21L,4.55
2,D21M,3.94
3,D21N,4.72
4,D21P,3.92
5,D21Q,4.71
6,D21R,4.07
7,D21S,4.57
8,D21T,4.21
9,D21V,4.25
10,D21W,3.51
11,D21Y,4.03
12,R22A,4.49
13,R22C,4.43
14,R22D,4.57
15,R22E,4.47
16,R22F,3.26
17,R22G,4.24
18,R22H,4.46
19,R22I,4.03
20,R22K,4.51
21,R22L,4.08
22,R22M,4.48
23,R22N,4.29

row,Variant,protein stability index
1,R22P,4.29
2,R22Q,4.59
3,R22S,4.03
4,R22T,4.02
5,R22V,4.17
6,R22W,3.15
7,R22Y,3.81
8,H23A,4.4
9,H23C,4.54
10,H23D,4.81
11,H23E,5.08
12,H23F,3.3
13,H23G,4.05
14,H23I,4.21
15,H23K,4.11
16,H23L,3.9
17,H23M,4.4
18,H23N,4.15
19,H23P,3.86
20,H23Q,4.22
21,H23R,3.96
22,H23S,3.67
23,H23T,3.65

row,Variant,protein stability index
1,H23V,4.25
2,H23W,3.63
3,H23Y,3.83
4,I24A,4.74
5,I24C,4.12
6,I24D,4.92
7,I24E,4.25
8,I24F,3.88
9,I24G,4.43
10,I24H,4.4
11,I24K,4.29
12,I24L,3.88
13,I24M,4.03
14,I24N,4.47
15,I24P,4.25
16,I24Q,4.57
17,I24R,3.9
18,I24S,4.56
19,I24T,4.18
20,I24V,4.6
21,I24W,2.89
22,I24Y,4.01

# Variants of: B2
# Experiment: as above
# Settings: c terminus: a fixed tail appended
row,Variant,protein stability index
1,P21Y,4.05
2,T1V,3.62
3,P9I,4.3
4,M23Q,5.23
5,P9A,4.62
6,Q16R,5.25
7,G22V,4.29
8,A15I,4.34
9,N7P,5.37
10,S24K,4.94
11,S12W,3.25
12,P14R,4.4
13,A15S,4.56
14,G22E,4.68
15,S12E,5.06
16,L13G,4.27
17,L13F,4.35
18,K20V,3.66
19,K20R,4.4
20,N18H,4.85
21,Q16T,4.53
22,S10N,3.58
23,R19I,4.61
24,I3T,4.82
25,N7V,4.45
26,S24C,4.2

row,Variant,protein stability index
1,A15M,4.16
2,S11Q,4.53
3,N2F,3.43
4,P6Q,3.19
5,G22Y,4.01
6,V8N,4.58
7,N7C,4.56
8,P9W,3.53
9,I3G,4.72
10,T1K,4.55
11,V8Y,4.02
12,Q16S,4.91
13,A15K,4.58
14,R19L,4.58
15,S10Y,4.22
16,M23A,5.03
17,T1S,4.4
18,L5T,4.74
19,P6R,4.04
20,V8K,4.63
21,G22Q,4.88
22,L5A,4.71
23,T1L,3.24
24,V8F,4.29
25,S12I,4.56
26,S12C,4.18

row,Variant,protein stability index
1,P9F,4.22
2,T1N,4.82
3,M23I,4.37
4,N2R,4.08
5,L5M,4.76
6,S10H,4.76
7,L13I,4.54
8,L5I,4.61
9,P17T,4.75
10,P9Q,5.12
11,Q16V,4.71
12,I3L,4.26
13,K20I,3.61
14,S11R,4.79
15,S24H,4.5
16,I3E,4.92
17,G22H,4.32
18,R4P,4.73
19,L13D,4.4
20,N18V,4.6
21,S11N,4.19
22,G22A,4.48
23,L5C,4.92
24,N2T,4.59
